Measurements as given in publication PMC6215714 (Nature chemical biology, 2015).

Biological target: Growth arrest specific 6 (Gas6), soluble, His-tagged (Homo sapiens, UniProt Q14393)
Assay: flow cytometry on cells

Growth arrest specific 6 (Gas6), soluble, His-tagged, sequence (Q14393 31-678): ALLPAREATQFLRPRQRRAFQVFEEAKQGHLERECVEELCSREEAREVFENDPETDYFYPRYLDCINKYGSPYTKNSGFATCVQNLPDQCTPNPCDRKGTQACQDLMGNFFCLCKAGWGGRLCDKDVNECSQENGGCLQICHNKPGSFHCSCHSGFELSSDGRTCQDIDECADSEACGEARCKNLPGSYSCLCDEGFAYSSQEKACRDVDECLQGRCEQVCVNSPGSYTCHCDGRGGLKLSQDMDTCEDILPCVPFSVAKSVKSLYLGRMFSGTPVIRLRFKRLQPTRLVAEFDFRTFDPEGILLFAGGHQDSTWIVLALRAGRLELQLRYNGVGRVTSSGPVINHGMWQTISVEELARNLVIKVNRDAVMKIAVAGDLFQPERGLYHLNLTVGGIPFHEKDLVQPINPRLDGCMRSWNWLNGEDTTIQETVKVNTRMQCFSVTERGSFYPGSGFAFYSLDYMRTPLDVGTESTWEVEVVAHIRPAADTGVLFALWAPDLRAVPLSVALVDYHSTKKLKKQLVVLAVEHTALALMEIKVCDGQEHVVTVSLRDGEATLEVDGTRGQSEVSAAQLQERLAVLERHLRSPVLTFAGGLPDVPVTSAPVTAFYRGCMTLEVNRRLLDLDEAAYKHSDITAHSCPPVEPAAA

B1: anti-Gas6 scFv identified by μSCALE from a naïve yeast-displayed scFv library (scFv, V domains shown)
VH: EVQLVESGGGLVQPGGSLRLSCAASGFNISYGGSYIHWVRQAPGKGLEWVASIYPGGGYTYYADSVKGRFTISADTSKNTAYLQMNSLRAEDTAVYYCARTVRGSKKPYFSGWAMDYWGQGTLVTVSS
VL: DIQMTQSPSSLSASVGDRVTITCRASQYGGYGGVAWYQQKPGKAPKLLIYYASSLYSGVPSRFSGSRSGTDFTLTISSLQPEDFATYYCQQWWGYPITFGQGTKVEIK
Kd: 130 nM
